PMC2148073

Key:
[1] = biological target: native syntaxin 1A from PC12 cells (rat (endogenous in PC12)) (UniProt P32851)
[2] = biological target: native syntaxin 1A from PC12 cells (rat (endogenous in PC12)) (UniProt P32851); remark: listed apart in the source

Chain of UniProt P32851 (P32851 whole entry): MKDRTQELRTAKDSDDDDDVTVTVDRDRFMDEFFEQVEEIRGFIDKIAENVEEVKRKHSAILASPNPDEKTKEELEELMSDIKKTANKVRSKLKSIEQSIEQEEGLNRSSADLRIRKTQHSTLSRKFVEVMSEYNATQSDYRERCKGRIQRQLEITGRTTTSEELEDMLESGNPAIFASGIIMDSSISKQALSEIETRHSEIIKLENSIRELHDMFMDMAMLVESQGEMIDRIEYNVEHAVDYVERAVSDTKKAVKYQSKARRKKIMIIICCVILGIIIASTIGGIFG

inhibition of Ca2+-triggered [3H]-NE release from cracked PC12 cells by 10–20 µM GST-fusion peptide present during priming and triggering; pair blocked: endogenous Kv2.1 with syntaxin [1]: 60% | half-maximal inhibition of Ca2+-triggered [3H]-NE release from cracked PC12 cells (dose response of GST-Kv2.1-C1); pair blocked: endogenous Kv2.1 with syntaxin [2]: 2 µM | inhibition of Ca2+-triggered [3H]-NE release from cracked PC12 cells at increasing concentrations of GST-Kv2.1-C1 (from 10 nM; saturation at 5 µM); pair blocked: endogenous Kv2.1 with syntaxin [2]: 57%
Substance: GST-fused Kv2.1-C1 protein (domain or fragment)
